In patent publication US20100021480A1, “BIOACTIVE SUBSTANCE-BLOOD PROTEIN CONJUGATE AND STABILIZATION OF A BIOACTIVE SUBSTANCE USING THE SAME” (priority 2005, published 2010) one finds PA 20.6 min/4.4M (peak area against that of 10 µl Compound 15 alone) and PA 20.6 min (HPLC peak area of Compound 15 left in the supernatant) data, which are given here for one substance.

Experiment [1] deals with activated albumin 21 (human serum albumin whose Cys34 free thiol is substituted by a disulfanyl group with aldrithiol) (human) (UniProt P02768). Kind of experiment: albumin binding test: 20 µl of 1 mM Compound 15 with 50 µl of 1 mM activated albumin, HPLC of supernatant (unbound peptide).
Chain of activated albumin 21 (human serum albumin whose Cys34 free thiol is substituted by a disulfanyl group with aldrithiol) (human) (P02768 25-609 limits assumed): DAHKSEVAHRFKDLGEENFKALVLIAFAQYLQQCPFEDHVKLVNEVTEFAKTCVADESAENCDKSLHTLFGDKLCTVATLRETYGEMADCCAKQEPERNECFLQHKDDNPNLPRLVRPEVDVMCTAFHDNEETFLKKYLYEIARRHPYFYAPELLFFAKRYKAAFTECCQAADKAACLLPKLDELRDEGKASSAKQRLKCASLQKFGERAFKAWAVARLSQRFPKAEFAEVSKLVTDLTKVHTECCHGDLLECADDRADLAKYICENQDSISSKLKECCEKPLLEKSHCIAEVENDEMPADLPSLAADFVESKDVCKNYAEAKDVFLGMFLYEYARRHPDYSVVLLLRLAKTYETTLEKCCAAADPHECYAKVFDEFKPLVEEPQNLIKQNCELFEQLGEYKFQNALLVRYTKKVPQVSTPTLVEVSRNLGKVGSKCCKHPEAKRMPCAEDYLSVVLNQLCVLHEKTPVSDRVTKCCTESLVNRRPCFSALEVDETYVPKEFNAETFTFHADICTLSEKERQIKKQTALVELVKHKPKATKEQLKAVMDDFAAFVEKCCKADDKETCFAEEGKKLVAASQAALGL
Experiment [2] has the same target. Kind of experiment: albumin binding test: 50 µl of 1 mM Compound 15 with 50 µl of 1 mM activated albumin, HPLC of supernatant (unbound peptide).
Experiment [3] shares this target. As to the kind of experiment: albumin binding test: 40 µl of 1 mM Compound 15 with 50 µl of 1 mM activated albumin, HPLC of supernatant (unbound peptide).
For experiment [4] the target is unchanged. Kind of experiment: albumin binding test: 50 µl of 1 mM Compound 15 with 50 µl of 1 mM activated albumin in 100 µl, 37 C 30 min, methanol precipitation, HPLC of supernatant (unbound peptide).
Experiment [5] shares this target. Kind of experiment: albumin binding test: 50 µl of 1 mM Compound 15 with 40 µl of 1 mM activated albumin, HPLC of supernatant (unbound peptide).
Experiment [6] shares this target. As to the kind of experiment: albumin binding test: 40 µl of 1 mM Compound 15 with 50 µl of 1 mM activated albumin in 100 µl PBS, 37 C 30 min, methanol precipitation, HPLC of supernatant (unbound peptide).
Experiment [7] shares this target. As to the kind of experiment: albumin binding test: 50 µl of 1 mM Compound 15 with 40 µl of 1 mM activated albumin in 100 µl PBS, 37 C 30 min, methanol precipitation, HPLC of supernatant (unbound peptide).
For experiment [8] the target is unchanged. As to the kind of experiment: albumin binding test: 20 µl of 1 mM Compound 15 with 50 µl of 1 mM activated albumin in 100 µl PBS, 37 C 30 min, methanol precipitation, HPLC of supernatant (unbound peptide).

Turning to “Compound 15: Leuprolide-GSG-Lys-[ε-AEEA-CO-(CH2)2-SH]-NH2.2TFA (peptide)”, the PA 20.6 min/4.4M (peak area against that of 10 µl Compound 15 alone) in experiment [1] was 0.3; in experiment [2], 3.3; in experiment [3], 2.2; in experiment [5] it was 4. The PA 20.6 min (HPLC peak area of Compound 15 left in the supernatant) in experiment [4] was 1.47e+07 peak area; in experiment [6], 9.8e+06 peak area; in experiment [7], 1.79e+07 peak area; in experiment [8], 1.3e+06 peak area.
